Blank lines part the entries; values can stand above or below the binder they belong to. Where no end group is shown, it is not given here. [ ]: non-standard residue; d: D form. The star is where a group is joined. Biotin = O=C1N[C@H]2[C@H](CS[C@H]2CCCCC(=O)*)N1; pY = N[C@@H](Cc1ccc(OP(=O)(O)O)cc1)C(=O)O
Tests used:
Assay in all cases: SPR
[1] = target: T1, SLP-76 SH2 domain, His-tagged (UniProt Q13094 422-530)
T1 chain: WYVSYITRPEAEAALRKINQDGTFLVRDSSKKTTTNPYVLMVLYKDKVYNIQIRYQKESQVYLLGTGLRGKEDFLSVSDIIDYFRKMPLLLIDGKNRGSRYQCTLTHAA

[2] = target: T2, GADS SH2 domain, His-tagged (UniProt O75791 58-149)
T2 chain: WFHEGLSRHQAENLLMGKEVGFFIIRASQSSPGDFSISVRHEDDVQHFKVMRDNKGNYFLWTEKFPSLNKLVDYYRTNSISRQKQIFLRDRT

CD6 long pY629 peptide = target: T3, CD6 long pY629 peptide (Homo sapiens, UniProt P30203, pY629)
T3 chain: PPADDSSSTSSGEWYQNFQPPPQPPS

CD28 pYMN peptide = target: T4, CD28 pYMN peptide (Homo sapiens, UniProt P10747)
T4 chain: LLHSD[pY]MNMTPRR

B1: GADS SH2 (protein)
chain: FPKWFHEGLSRHQAENLLMGKEVGFFIIRASQSSPGDFSISVRHEDDVQHFKVMRDNKGNYFLWTEKFPSLNKLVDYYRTNSISRQKQIFLRDRTRED
Kd (CD6 long pY629 peptide): ~400 nM
Kd (CD28 pYMN peptide): ~2500 nM

Binder: Biotin-STSSGEW[pY]QNFQPPPQPPSEEQFGCPGSPSPQPDSTDNDDYDDISAA [long CD6 peptide phosphorylated at Y629]
Kd [2]: 1000 nM

The remaining lines, values ahead:

Kd [1]: 1000 nM
Binder: Biotin-STSSGEWYQNFQPPPQPPSEEQFGCPGSPSPQPDSTDNDD[pY]DDISAA [long CD6 peptide phosphorylated at Y662]

Kd [1]: 1000 nM
Kd [2]: 1000 nM
Binder: Biotin-STSSGEW[pY]QNFQPPPQPPSEEQFGCPGSPSPQPDSTDNDD[pY]DDISAA [long CD6 peptide phosphorylated at Y629 and Y662]
